# According to patent US20060216692, “Switchable nucleic acids for diagnostics, screening and molecular electronics” (published 2006):
# T1: NCp7 (nucleocapsid protein, Zn2.NCp7(1-55)) (HIV-1, UniProt P35962 SEQ:1-55)
# T1 chain: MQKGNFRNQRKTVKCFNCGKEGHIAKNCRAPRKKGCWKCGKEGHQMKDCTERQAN
# Tests used:
# [1] = biological target: NCp7 (nucleocapsid protein, Zn2.NCp7(1-55)) (HIV-1) (UniProt P35962); conditions: Trp assay; virtually identical Kd to 20mer
# [2] = biological target: T1, NCp7 (nucleocapsid protein, …); experiment: Trp37 quenching, 0.2 M NaCl; equivalent of three NCp7 bound with high affinity per RNA; conditions: about 3 per 154mer); SL1-SL4 stem-loops
Molecule,binding signal (fold of SL3 20mer) [1],binding result [2]
SL3 16mer,1,–
154mer packaging domain (ssRNA) RNA: GGAGCUCUCUCGACGCAGGACUCGGCUUGCUGAAGCGCGCACGGCAAGAGGCGAGGGGCGGCGACUGGUGAGUACGCCAAAAAUUUUGACUAGCGGAGGCUAGAAGGAGAGAGAUGGGUGCGAGAGCGUCAGUAUUAAGCGGGGGAGAAUUAGA,–,binds
